{"source": "patent US20250043302A1", "about": "“MUTATED HYDROXYPHENYLPYRUVATE DIOXYGENASE POLYPEPTIDE, AND CODING GENE AND USE THEREOF” (BEIJING DABEINONG BIOTECHNOLOGY CO., LTD., priority 2021, published 2025)", "format_in_all_cases": "in vivo", "key": {"[1]": {"system": "Arabidopsis thaliana T1 plants", "assay": "Topramezone tolerance of transgenic Arabidopsis thaliana T1 plants (spray, bleached leaf area grade, damage score)", "conditions": "7 DAT, Table 4; for Classification and statistics of the grade of pesticide damage: Grade 0 / Classification and statistics of the grade of pesticide damage: Grade 1 / Classification and statistics of the grade of pesticide damage: Grade 2 / Classification and statistics of the grade of pesticide damage: Grade 3: number of plants; for Scores: pesticide damage score 0-100", "in_short": "(§1)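 T1 transformants selected by glufosinate; 18-day-old plants, with empty-vector and wild-type controls, sprayed with topramezone (25–200 g ai/ha), isoxaflutole (35–280 g ai/ha) or mesotrione (52.5–420 g ai/ha), water as 0×. Bleached leaf area fraction scored at 7 DAT as grades 0–3.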"}, "[2]": {"system": "Arabidopsis thaliana T1 plants", "assay": "Isoxaflutole tolerance of transgenic Arabidopsis thaliana T1 plants (spray, bleached leaf area grade, damage score)", "set-up": "Scores (pesticide damage): scale not given here", "conditions": "spray, Arabidopsis thaliana T1 plants; for Classification and statistics of the grade of pesticide damage: Grade 0 (number of plants) / Classification and statistics of the grade of pesticide damage: Grade 1 (number of plants) / Classification and statistics of the grade of pesticide damage: Grade 2 (number of plants) / Classification and statistics of the grade of pesticide damage: Grade 3 (number of plants): 16 plants", "in_short": "as §1"}, "[3]": {"system": "Arabidopsis thaliana T1 plants", "assay": "Mesotrione tolerance of transgenic Arabidopsis thaliana T1 plants (spray, bleached leaf area grade, damage score)", "set-up": "Scores: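 damage score 0-100 computed as Σ(N×S)/(T×M)×100 over grades 0-3 with higher meaning more damage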", "conditions": "Arabidopsis thaliana T1 plants; for Grade 0 (classification and statistics of the grade of pesticide damage; number of plants) / Grade 1 (classification and statistics of the grade of pesticide damage; number of plants) / Grade 2 (classification and statistics of the grade of pesticide damage; number of plants) / Grade 3 (classification and statistics of the grade of pesticide damage; number of plants): 16 plants", "in_short": "as §1"}, "[4]": {"conditions": "isoxaflutole 35 g ai/ha (0.5x field concentration)"}, "[5]": {"conditions": "isoxaflutole 70 g ai/ha (1x field concentration)"}}}
{"molecule": "BnHPPDm-F383W-02: nucleotide sequence encoding Brassica napus HPPD with F383W; vector DBN11744 (nucleic acid, BnHPPDm-F383W-02 Nucleotide Sequence, vector DBN11744) DNA: ATGGGACATGAAAACGCGGCAGTGTGTGAAACTCAACAACATGATGACGCCGCCTCCCCGGGGTTTAAACTTGTCGGGTTCTCAAAATTTGTTAGGAAGAATCCAAAGTCTGACAAGTTCAAGGTGAAACGCTTCCACCACATCGAGTTCTGGTGCGGGGATGCAACAAATGTTTCACGCCGCTTTTCATGGGGACTAGGAATGAGGTTTAGCGCAAAGAGTGATCTCTCCACTGGTAATATGGTTCATGCGAGCTACTTGCTCACATCTGGAGACCTGAGATTCCTCTTCACCGCACCATATTCTCCCTCCCTGTCAGCTGGTGAAGCTCAGCCTTCAGCAACTGCAAGTATCCCTTCGTTTGATCATGCATCGTGCAGGTCTTTCTTCAGTTCACATGGACTCGGCGTCAGAGCAGTAGCGATCGAAGTAGAGGATGCTGAATCAGCTTTCTCCATATCTGTCGCCAACGGCGCGGTGCCTTCTTCTCCACCAAACGTCTTGAATGGTGCTGTTACCATTGCTGAGGTGAAGCTGTACGGAGATGTTGTTTTAAGATATGTTTCATATTACAATGGGACCGTTTCTTTTCTTCCCGGCTTTGAATCTGTTGATGATACTTCTTCCTTCCCTCTTGATTATGGGATCAGGCGGCTGGACCACGCCGTCGGCAACGTGCCGGAGTTAGGTCCTGCTTTGACATATCTTGCCGGCTTCACTGGATTCCATCAATTTGCAGAGTTTACGGCTGACGACGTGGGGACCGCGGAGAGTGGGCTGAACTCAGCAGTCTTGGCCAACAATGATGAAATGGTGCTCCTCCCCATCAATGAACCTGTGCATGGAACAAAGAGAAAGTCGCAGATTCAAACATTTTTAGAGCACAATGAGGGAGCTGGGCTACAGCACCTCGCATTGATGTCAGAAGATATTTTTCGAACGTTGAGGGAGATGCGGAAACGATCTGGTGTAGGCGGCTTTGACTTCATGCCATCCCCTCCGCCAACCTACTACAAGAACCTGAAGAAGAGGGTTGGAGACGTCCTTTCCGAGGAGCAAATTGAAGAATGTGAGGAGCTTGGAATTCTGGTGGACAGAGATGATCAAGGAACACTACTTCAGATCTTCACAAAACCATTGGGCGACAGGCCAACGATATGGATTGAGATCATTCAGCGCGTTGGATGCATGAAGCGTGATGAGGAAGGGAAGGTCTACCAGAGTGGCGGTTGTGGTGGATTTGGAAAAGGAAATTTTTCTGAGCTGTTCAAAAGCATAGAAGAGTATGAGAAAACATTGGAGGCCAAGCAGCTTGTTGGTTGA", "values": [{"measurement": "Classification and statistics of the grade of pesticide damage: Grade 0", "setting": "[1]; topramezone 25 g ai/ha (1×)", "result": 0}, {"measurement": "Classification and statistics of the grade of pesticide damage: Grade 1", "setting": "[1]; topramezone 25 g ai/ha (1×)", "result": 3}, {"measurement": "Classification and statistics of the grade of pesticide damage: Grade 2", "setting": "[1]; topramezone 25 g ai/ha (1×)", "result": 9}, {"measurement": "Classification and statistics of the grade of pesticide damage: Grade 3", "setting": "[1]; topramezone 25 g ai/ha (1×)", "result": 4}, {"measurement": "Classification and statistics of the grade of pesticide damage: Grade 0", "setting": "[1]; topramezone 100 g ai/ha (4×)", "result": 0}, {"measurement": "Classification and statistics of the grade of pesticide damage: Grade 1", "setting": "[1]; topramezone 100 g ai/ha (4×)", "result": 0}, {"measurement": "Classification and statistics of the grade of pesticide damage: Grade 2", "setting": "[1]; topramezone 100 g ai/ha (4×)", "result": 0}, {"measurement": "Classification and statistics of the grade of pesticide damage: Grade 3", "setting": "[1]; topramezone 100 g ai/ha (4×)", "result": 16}, {"measurement": "Scores", "setting": "[1]; topramezone 25 g ai/ha (1×)", "result": 69}, {"measurement": "Scores", "setting": "[1]; topramezone 100 g ai/ha (4×)", "result": 100}, {"measurement": "Resistance evaluation", "setting": "[1]; topramezone 25 g ai/ha (1×)", "result": "non-resistant (non-resistant plants (scores 68-100))"}, {"measurement": "Resistance evaluation", "setting": "[1]; topramezone 100 g ai/ha (4×)", "result": "non-resistant (non-resistant plants (scores 68-100))"}, {"measurement": "Resistance evaluation", "setting": "[2]; [4]", "result": "Non-resistant"}, {"measurement": "Scores (pesticide damage)", "setting": "[2]; [4]", "result": 94}, {"measurement": "Classification and statistics of the grade of pesticide damage: Grade 0 (number of plants)", "setting": "[2]; [4]", "result": 0}, {"measurement": "Classification and statistics of the grade of pesticide damage: Grade 1 (number of plants)", "setting": "[2]; [4]", "result": 0}, {"measurement": "Classification and statistics of the grade of pesticide damage: Grade 2 (number of plants)", "setting": "[2]; [4]", "result": 3}, {"measurement": "Classification and statistics of the grade of pesticide damage: Grade 3 (number of plants)", "setting": "[2]; [4]", "result": 13}, {"measurement": "Resistance evaluation", "setting": "[2]; [5]", "result": "Non-resistant"}, {"measurement": "Scores (pesticide damage)", "setting": "[2]; [5]", "result": 100}, {"measurement": "Classification and statistics of the grade of pesticide damage: Grade 0 (number of plants)", "setting": "[2]; [5]", "result": 0}, {"measurement": "Classification and statistics of the grade of pesticide damage: Grade 1 (number of plants)", "setting": "[2]; [5]", "result": 0}, {"measurement": "Classification and statistics of the grade of pesticide damage: Grade 2 (number of plants)", "setting": "[2]; [5]", "result": 0}, {"measurement": "Classification and statistics of the grade of pesticide damage: Grade 3 (number of plants)", "setting": "[2]; [5]", "result": 16}, {"measurement": "Resistance evaluation", "setting": "[3]; mesotrione 52.5 g ai/ha", "result": "Non-resistant"}, {"measurement": "Scores", "setting": "[3]; mesotrione 52.5 g ai/ha", "result": 100}, {"measurement": "Grade 0 (classification and statistics of the grade of pesticide damage; number of plants)", "setting": "[3]; mesotrione 52.5 g ai/ha", "result": 0}, {"measurement": "Grade 1 (classification and statistics of the grade of pesticide damage; number of plants)", "setting": "[3]; mesotrione 52.5 g ai/ha", "result": 0}, {"measurement": "Grade 2 (classification and statistics of the grade of pesticide damage; number of plants)", "setting": "[3]; mesotrione 52.5 g ai/ha", "result": 0}, {"measurement": "Grade 3 (classification and statistics of the grade of pesticide damage; number of plants)", "setting": "[3]; mesotrione 52.5 g ai/ha", "result": 16}, {"measurement": "Resistance evaluation", "setting": "[3]; mesotrione 105 g ai/ha", "result": "Non-resistant"}, {"measurement": "Scores", "setting": "[3]; mesotrione 105 g ai/ha", "result": 100}, {"measurement": "Grade 0 (classification and statistics of the grade of pesticide damage; number of plants)", "setting": "[3]; mesotrione 105 g ai/ha", "result": 0}, {"measurement": "Grade 1 (classification and statistics of the grade of pesticide damage; number of plants)", "setting": "[3]; mesotrione 105 g ai/ha", "result": 0}, {"measurement": "Grade 2 (classification and statistics of the grade of pesticide damage; number of plants)", "setting": "[3]; mesotrione 105 g ai/ha", "result": 0}, {"measurement": "Grade 3 (classification and statistics of the grade of pesticide damage; number of plants)", "setting": "[3]; mesotrione 105 g ai/ha", "result": 16}]}
